Source: patent US20180244734A1

Target: anti-BBP1 polyclonal antibody
Assay: competitive ELISA, free peptide against coated BBP1-biotin peptide for the anti-BBP1 polyclonal antibody

## HSYSTNSFSRTTNG [BBP1 peptide (SEQ ID No. 7)]
  lowest level detected: 2.5 µg/mL
